Experiment: yeast display, Sf9 membrane polyspecificity reagent, FACS + sequencing; frameworks hold sequencing errors
Method in brief: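 Nanobodies from a synthetic yeast display library (Saccharomyces cerevisiae BJ5465), induced 36–48 hours with galactose, were stained 1 hour at 4 °C with 10% biotinylated, detergent-solubilized Sf9 membrane reagent, enriched on streptavidin microbeads, then FACS-sorted. Anti-HA (expression) and streptavidin (reagent binding) fluorescence set low and high (top ~1%) gates. Polyreactivity labels come from the gate of origin. Genes were colony-PCR amplified, MiSeq 2 × 250 sequenced and filtered by CDR length.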

Row | Sequence | polyreactivity (PSR sort gate)
1 | QVQLVESGGALVQAGGSLRLSCAASGRIFSSYAMGWYRQEPGKERELVAAISRSGARTYYADSVKGRFTISRDNAKYSVYLQMNSLIAEDSAVSYCAAVTVSCYDYWGQGTQVTVSS | high polyreactivity
2 | QFQLVESGGGLVQAGGSLRLSCAASGFTFDGYAMGWYRQAPGKERELVAAISDSGDSTYYADSVKGRFTISRDNAKITVYLQMNSLKPEDTAVYYCAAGLGYYWSDYFAYDYWGQGTQVTVSS | low polyreactivity
3 | QDQLVESGGGLVQAGGSLRLSCAASGFIFDDNAMGWSRQAPGKERELVAAITSGGGSTYYAVSVKGRFTISRDNAKNTVYLQMNSLKPEDTAVYYCNAVPSQHDEFDYWGQGTQVTVSS | low polyreactivity
4 | QVQLVESGGGLVQAGGSLRLSCAASGRIIYVKAMGWYRQAPGKERELVAAISSRGGTTYYADSVKGRFTISRDNAKNSVYLQMNSLKPEDTAVYYCNAGRVRHGNDYWGQGTQVTVSS | high polyreactivity
5 | QVQLVESGGGLVQAGGSLRLSCAASGSIFYLYAMGWYRQAPGKERELVAAISSSGGRTYYADSVKGRFTISRDNAKNTVYLQMNSLKPEDTAVYYCAARYWAKYSYGYWGQGTQVTVSS | high polyreactivity
6 | QVQLVESGRGLVQAGGSLRLSCAASGFIFGGYAMGWYRQAPGKERELVAAISRSGGSTYYADSVKGRFTISRDNAKNTVYLQMNSLKPEDTAVYYCAAKFWPEDHRLDYWGQGTQVTVSS | low polyreactivity
7 | QVQLVESGRGLVQAGGSLRLSCAASGRIFFKYAMGRYRPAPGKERELVAAISSSGGRTSYADSVKGRFTISRDNAKNTVYLQMNSLKPEDTAVYYCNVKPSARGSPLYDYWGQGTQVTVSS | high polyreactivity
8 | QVQLVESGGGLVQAGGSLRLSCAASGSSFHTYAMGWYRQAPGKERELVAAINRRTGGTYYADSVKGRFTISRDNAKTTVYLQMNSLKPEDTAVYYCATDWFSYRGGIFDSWGQGTQVTVSS | low polyreactivity
9 | QVQLVESGGGLVQAGGSLRLSCAASGRTLSVYAMGWYRQAPGKERELLAAITIRGGRTYYADSVKGRFTISRDNAKNTVYLQMNSLKPEDTAVYYCAAPPYVKMDYWGQGTQVTVSS | high polyreactivity
10 | QVQLVESGGGLVQAGGSLRLSCAASGSIDSKYTMGWYRQAPGKERELVAAIRGSGVRTYYADSVKGRFTISRDNAKNTVYLQMNSLKPEDTAVYYCAKVVYRGKVALWISSTAGSDYWGQGTQVTVSS | low polyreactivity
11 | QVQLVESGGGLVQAGGSLRLSCAASGRICPKKGMGWYRQAPWKERELVAAITSGTSTYYADSVKGRFTISRDNAKNTVYLQMNSLKPEDTAVYYCNAVHARYRCQGDYWGQGTQVTVSS | low polyreactivity
12 | QVQLVESGGGLVQAGGSLRLSCAASGRTFGYYAMGWYRQAPGKERELVAAISRSGGSTYYADSVKGRFTISGDNAKNTVYLQMNSLKPEDTAVYYCAVKGYVKSDYWGQGTQVTVSS | high polyreactivity
13 | QVQLVESGGGLVQAGGSLRLSCAASGRNFGINAMVWFRPAPGKERELVAAISRSGGRTYYADSVKGRFTISRDNAKNTVYLQMISLKPEDTAVYYCAKVPTYWYYRYYYWGQGTEVTVSS | high polyreactivity
14 | QVQLVESGGGLVQAGGSLRLSCAASGRIFWYYAMGWYRQAPGKERELVARISSSGGSTYYADSVKGRFTISRDNAKNTVYLQMNSLKPEDTAVYYCAAEHYILYDYLWAYDYWGQGTQVTVSS | high polyreactivity
15 | QVQLVESGGGLVQAGGSLRLTCAASGRTFRKNAMGWYRQAPGKERELVAAITGSSGTTYYADSVKGRFTISRDNAKNTVYLQMNSLKPEDTAVYYCATTVGDPGRRYYYWGQGTQVTVSS | high polyreactivity
16 | QVHLVDSAGGLVQAGGNLSLSCEASGSIFRAYAMGWYRQAQGKERELVADISRSGGSTYYAESVKGRFTISRDNAKNTVYLQRNSLKPEDTAVSYGAAVFYLFSNLYGEYDYWGQGTQVTVSS | low polyreactivity
17 | QVQIVESGGGLVQAGGSLRLSCAASGSTFYEYAMGWYRQAPGKERELVATITSGGRTYYADSVKGRFTISRDNAKNTVYLQMNSLKPEDTAVYYCAAAGKGRFHFRSTMDYWGQGSQVTVSS | high polyreactivity
18 | QVQLVESGGGLVQAGGSLRLSCAASGIIIVYNVMGWYRQAPGKERELVAAITNGDSTNYADSVKGRFTISRDNAKNTVYLQMNSLKPEDTAVYYCNVEGGYPLKYDYWGQGTQVSVSS | low polyreactivity
19 | QDQLVESGGGLVQAAGSLRLSCAASGSTFLGNALGWYRQARGKERQLVAAISGRGGSTYYADSVKGRFTISRDNAKNTVYVQMNSLKPEDTAVYYCNAVGRRVRTWHDYDYWGKGTQVTVSS | high polyreactivity
20 | QVHLVESGGGLVQARGSLRLSCAASGRIFRYYVMGWYRQAPGIERELVAAITSGTSTNYADSVKGRFTISRDNAKNTVYLQMTSLKPEDTAVYYCAVRSPRGGRTRFNSNYWGQGTQVTVSS | high polyreactivity
21 | QVQLVESGGGLVQAGGSLRLSCAASGSIFLKYDMGWYRQAPGKERELVAAISRGGDTNYADSVKGLFTISRDNAKNCVYLQMNSLKPEDTAVYDCAARPGLYFTRRGRYYLGQGTQVTVSS | high polyreactivity
22 | QVQRVESGGALVQAGGSLRLSCAASGRIFGGYAMGWYRQAPGKERELVAAISSRGGSTYYADSVKGRFTISRDNAKNTVYLQMNSLKPEDTAVYYCAADGRVKGWGQGTQVTVSS | high polyreactivity

Row | Sequence | polyreactivity (PSR sort gate)
23 | QVQLVESGGGLVQAGGSLRLSGAASGFIFGYYAMGWYRQAPGKERELVAAITSRGGSTYYADSVKGRFTISRDNAKNTVYLQMNSLKPEDTAVYYCAAGYNGYGLQYYYWGQGTQVTVSS | high polyreactivity
24 | QVQLVESGGGLVQAGGSLRLSCAASGFTFAVFARGWYRQAPGKERELVAAISRTGTRTYYADSVKGRFTISRDNAKNTVYLQMNSLKPEDTAVYYWAADKYRHGYDYWGQGTQVTVSS | low polyreactivity
25 | QVQLVESGGGLVQAGGSLRLSCAASGNIFVSNVMGWYRQAPGKERELVAAISSGGRTYYADSVKGRFTISRDNAKNTVYLQMNSLKPEDTAVYYCAASYKSKYLGGGEYWGQGTQVTVSS | high polyreactivity
26 | QVQLVESGGGLVQAGGSLRLSCAASGRTLRWYAMGWYRQAPGKERELVAAITWRGGSTRYADSVKGRFTISRDNAKNTVYLQMNSLKPEDTAVYYCNKYYYRTIEGDYWGQGTQVTVSS | high polyreactivity
27 | QVQLVESGGGLVQAGGSLRLSCAASGRIFSEYAMGWYRQAPGKERELVAAITRRGGSTYYADSVKGRFTISRDNAKNTVYLQMNSLKPEDTAVYYCNALLTGGYQDSYPDDYWGQGTQVTVSS | high polyreactivity
28 | QVQLVESGGGLVQAGGSLRLSCAASGGTFPYNAMGWYRQAPGKERELVAAISSSGTSTYYADSVKGRFTISRDNAKNTVYLQMNSLKPEDTAVYYCNDYFKRYDYWGQGTQVTVSS | high polyreactivity
29 | QVQLVESGGGLVQAGASLRLSCAASGSTFGGNAMGWSRQAPWKERELVAAINWTGGSTYADSVKGRFTISRDNAKNTVYLQMNRLKPEDTAVYYCAIRATWGSSTQYLQNQEYDYWGQGSQVTVSS | low polyreactivity
30 | QVQLQESGGGLVQAGGSLRLSCAATGTIFTDRFMGWYLQAPGKERELVACISPGTSTNYADSVKGRFTISRDNAKNTVYLKINSLKPEDTAVYYCAADWSTGNNLPYWGQGTQVTVSS | high polyreactivity
31 | QVQLVESGGGLFQAGGSLRLSCAASGFTFAFNAMGWYRQAPGKERELVAGITSGGRTNYADSVKGRFTISRDNGKNTVYLQMNSLKPEDTAVYYCAADRPYYKGYVPPYYKYRYDYWGQGTQVTVSS | high polyreactivity
32 | QVQLVESGGGLVEAGGSLRLSCAASARTFIGNAMVWYRQAPGKERELVAGIDSDGSTNYADSVNGRFTSSRDNAKNTVYLQMNSLKPEDTAVYYCAAVQGYRFYEYYYWGQGTQVTVSS | low polyreactivity
33 | QVQLVESGGGLVQAGGSLRLSCAASGITFGPYAMGWYRQAPGKERELVATISSSGGSTYYADSVKGRFTISRDNAKNTVYLQMNSLKPEDTAVYYCNAGYAPYLGAYDYWGQGTQVTVSS | low polyreactivity
34 | QGQLVESGGGLGQAGGSLRLSCAASGSTSGIYAMGWYRQAPGKERELVAAIDTSGGSSYADSVKGRFTISRDNAKHTVYLQMNSLKPEDTAVYYCAKPFCSNSWSHGYWGQGTQVTVSS | low polyreactivity
35 | QVQLVESGGGLVQAGGSLRLSCAASGFTFPYYAMGWYRQAPGKERELVADITSGGGTNYADSVKGRFTISRDNAKNTVYLQMNSLKPEDTAVYYCAADAYHQGMDYWGQGTQVTVSS | low polyreactivity
36 | QVQLVESGGGLVQAGGSLRLSCAASGHTFRKYAMGWYRQAPGKERELVASITWSDGITYYADSVKGRFTISRDNAKNTVYLQMNSLKPEDTAVYYCATDLVQSEYDYWGQGTQVTVSS | low polyreactivity
37 | QVQLVESGGGLVQAGGSLRLSCAASGSTFEPYAMGWYRQAPGKEREFVAAISGSGGSTYYADSVKGRFTISRDNAKNTVYLQMNSLKPEDTAVSYCAKDSFPWVDDDYWGQATQVTVSS | low polyreactivity
38 | QVQLVESGGGLVQAGGSLRLSCAASGSIFRFYAMGWYRQAPGKERELVADISWRGGSTYYADSVKGRFTISRDNAKNTVYLQMNSLKPEDTAVSYCAAGYYRASTTVTHGGIEGDSWGQGTQVTVSS | high polyreactivity
39 | QVQLVESGGGLVQAGGSLRLSCAASGSIFTRYAMGWYRQAPGKERELVAAISRSDGGTNYADSVKGRFTISRDNAKNTVYLQMNSLKPEDTAVYYCAKDWYYYYPYDYWGQGTQVTVSS | low polyreactivity
40 | QVQLVESGGGLVQAGGSLRLSCAASGRIFAQYAMGWYRQAPGKERELVADISSGVRTYADSVKVRFTISRDNAKNTVYLQMNSLKPEDTAVYYCNAYYIIFTRNDYWGQGTQVTVSS | low polyreactivity
41 | QVQLVESGGGLVQAGGSLRLSCASSGRTFGTNTMGWYRQAPGKERELVAAISRSGVRTYYADSVKGRFTISRDNAKNTVYLQMKSLKAEDTAVYYCATDYKVHGFDYWGQGTQVSVSS | high polyreactivity
42 | QVQLEESGGGLVQAGGSLRLSCAASGSTFYPNAMGWYRQAPGKERELVAAISQRGGRKYYADSVKGRFTISRDNAKNTVYLQMNSLKPEDTAVYYCAATYQGYNSWYSFGYWGQGTQVTVSS | high polyreactivity
43 | QVQLVESGGGLVQAGGSLRLSCAASGSTFGWYAMGWYRQAPGKERELVAAINSSGDRTYYADSVKGRFTISRDNAKINVYLQMNSLKPEDTAVYYCAATYWARNWRYDYWGQGTQVTVSS | high polyreactivity

From the nanobody polyreactivity screen of Harvey et al. (2022)
